Assay results published in the supplement of paper PMC10567573.

B1: ZBED2 (parent)
chain: FHLAPARAGHHPNQYATCRLCGRQ
B2: STEAP1 (parent)
chain: WMLTRKQFGLLSFFFAVLHAIYSL

Variants of: B1
Assay: protein stability index of a GFP-peptide fusion (GPS, HEK-293T) (PSI 1-6); higher = more stable
Details: c terminus: a fixed tail appended
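Also: lentivirally expressed fusions sorted by FACS into six bins by GFP to DsRed ratio, PSI derived from sequencing read proportions per bin multiplied by bin number.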

Protein stability index, by site and new letter:
Q24: E 2.12; S 2.03; H 2; L 2.19; A 1.9; T 1.65; G 2.41; C 1.84; P 1.91; V 1.7; M 1.24; Y 1.53; F 3.46
T17: D 2.85; L 1.25; I 1.55; S 2.47; K 1.72; E 1.73; P 1.69; Y 2.15; G 2.76; C 1.68; M 2.42; F 2.23; N 1.99
G22: M 1.21; C 2.87; A 1.03; H 2.05; W 1.7; P 2.92; N 1.56; Y 2.12; L 2.57; I 2.08; E 1.93; Q 1.82; T 2.82; F 1.95
R23: F 2.1; A 1.85; E 1.54; Y 1.83; D 2; I 1.93; W 2.46; K 1.37; Q 2.43; M 1.81; N 2.07; C 1.32; S 1.52
C21: K 2.31; I 1.74; W 2.1; Y 1.73; H 2.52; F 1.97; T 2.72; S 3.43; A 3.59; M 1.26; L 1.95; P 2.59; Q 2.08; N 1.96
R19: S 1.92; G 2.11; Q 2.36; H 2.05; N 1.52; T 1.81; F 1.64; A 1.93; V 2.78; W 1.3; E 1.7; K 3.11; Y 1.16
A16: Y 2.9; P 2.4; T 2.3; N 2.38; S 1.82
C18: K 2.22; N 3.56; V 2.25; Y 1.93; H 2.27; P 2.9; F 1.93; Q 2.87; W 1.97; T 2.87; L 1.42; S 2.4; E 3.08; I 2.17; M 1.93; A 2.12
L20: C 1.54; M 1.94; G 2.82; R 1.92; T 1.82; P 2.23; D 1.27; H 1.55; Y 3.71; Q 1.18; V 2.27; S 2.22; F 2.4; N 1.31

Variants of: B2
Assay: as above
Details: c terminus: a fixed tail appended

Protein stability index: each site, then its substitutions
L3: H 2.09; N 2.1; D 2.93; Y 2.06; T 2.36; F 2.74; I 2.59; A 1.73; P 2.27; M 2.22; S 1.66; Q 2.05; V 1.52; R 1.71; W 1.73; C 3.54; K 1.71; G 1.76; E 1.57
L11: K 1.34; E 2.43; S 1.62; T 1.95; N 3.38; C 1.48; D 2.23; Q 1.67; R 1.51; V 2.15; W 1.72; M 2.52; F 1.72; P 1.57; Y 2.31; I 2.31; G 1.96; A 2.01
F8: A 1.74; N 1.73; V 2.14; G 1.18; R 2.31; K 1.67; Y 1.84; C 1.67; P 1.64; M 1.94; L 2.04; I 1.5; S 1.84; Q 2.11; W 1.88; E 1.64; D 2.31; T 3.12; H 2.16
R5: M 2.47; P 2.2; G 2.29; T 3.62; Q 2.21; E 2.03; H 3.39; K 1.52; N 2.12; A 1.04; F 2.14; D 1.96; W 2.1; C 1.52; Y 2.77; S 2.07
Q7: P 1.45; T 2.17; S 1.52; G 1.78; V 3.1; I 1.61; A 2.49; K 1.8; C 1.82; M 3.42; R 1.7; L 1.94; F 1.47; Y 2.28; W 1.86; H 2.53; E 1.21; D 2.01; N 2.23
M2: T 1.94; I 1.64; R 1.9; N 2.18; Q 1.77; S 1.52; H 1.7; F 1.73; Y 1.99; C 1.49; D 1.58; V 1.85; W 1.75; E 2.08; K 1.78; P 2.23; L 1.97; G 1.46; A 1.74
L10: M 1.83; V 1.52; H 2.09; G 2; Y 1.66; S 1.53; K 1.73; N 1.99; D 2.52; F 1.85; Q 3.24; C 1.98; W 1.35; E 2.17; A 1.76; R 4.36; P 1.33; T 1.96; I 2.05
G9: S 1.98; E 1.99; Q 2.07; R 2.97; V 1.83; D 3.04; N 1.46; T 1.25; K 2.04; F 1.94; A 2.27; Y 2.75; M 2.12; L 1.89; W 2.24; H 2; I 1.83; C 1.89
S12: T 1.84; D 1.28; K 1.86; P 3.09; F 1.9; V 1.67; M 1.67; G 1.75; A 2.05; I 1.61; L 1.66; N 2.05; Y 1.25; E 2.95; W 2.76; Q 2.38; H 1.94; C 1.88; R 2.57
W1: T 2.75; L 2.24; G 1.91; Q 1.85; C 1.82; R 2.01; N 2.35; H 2.1; D 2.04; V 2.18; M 1.88; Y 2.37; S 1.58; E 1.58; A 1.91; I 2.44; K 1.63; P 2.13; F 1.71
K6: E 2.56; Y 3.86; M 2.07; L 3.1; H 3.26; P 1.8; D 1.18; Q 2.48; S 2.85; C 2.16; R 1.88; N 2.32; T 2.08; F 1.79; V 3.54
T4: V 1.92; I 2.3; Y 1.41; M 1.69; H 1.6; S 1.62; K 2.13; E 1.1; N 1.99; F 2.31; G 1.63; Q 2.35; W 1.89; C 1.8; P 1.7; A 1.28; D 1.66; R 1.59; L 2.77
